Test results taken from patent US20240301049A1 (Ablynx, published 2024).
Values joined by “and” are separate entries in the source; they are usually repeats but may differ in a detail not shown here. Equal entries are not always repeated.

How the values were obtained:
[1] = biological target: T1, human membrane TNFα expressed on HEK293H cells (human, UniProt P01375 1-233); assay: flow cytometry, HEK293H cells expressing human membrane TNFα, without HSA, 24 h
T1 construct: whole, on cells; also called membrane expressed TNFα
Method: Briefly, cells were fixed with 4% paraformaldehyde and 0.1% glutaraldehyde in PBS (to increase detection of membrane bound TNFα). […] Cells were washed 3 times and subsequently incubated with an anti-VHH mAb (ABH00119) for 30 min at 4° C., washed again, and incubated for 30 min at 4° C. with a goat anti-mouse or anti-human PE labeled antibody. Samples were washed and resuspended in FACS Buffer (D-PBS with 10% FBS and 0.05% sodium azide supplemented with 5 nM TOPRO3). Cell suspensions were then analyzed on an iQuescreener. EC50 values were calculated using GraphPad Prism.

human FASL = biological target: T2, human FASL (human, UniProt P48023 134-281, limits assumed); assay: SPR (ProteOn XPR36), target immobilized
T2 construct: also called hFASL
T2 sequence (looked up): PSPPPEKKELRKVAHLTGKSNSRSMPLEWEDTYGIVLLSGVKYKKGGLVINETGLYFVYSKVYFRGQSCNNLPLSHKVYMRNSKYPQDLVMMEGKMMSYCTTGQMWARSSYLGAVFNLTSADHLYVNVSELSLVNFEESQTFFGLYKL

human TL-1A = biological target: T3, human TL-1A (human, UniProt O95150 72-251); assay: SPR (ProteOn XPR36), target immobilized
T3 construct: also called hTL-1A
T3 sequence (looked up): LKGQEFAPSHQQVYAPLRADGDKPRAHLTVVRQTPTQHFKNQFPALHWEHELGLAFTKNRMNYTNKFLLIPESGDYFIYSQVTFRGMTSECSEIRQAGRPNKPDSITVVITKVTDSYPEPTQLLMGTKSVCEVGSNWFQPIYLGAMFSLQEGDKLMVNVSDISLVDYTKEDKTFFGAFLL

human LIGHT = biological target: T4, human LIGHT (human, UniProt O43557 74-240, limits assumed); assay: SPR (ProteOn XPR36), target immobilized
T4 construct: also called hLIGHT

human oncostatin M = biological target: T5, human oncostatin M (human, UniProt P13725 26-221, limits assumed); assay: SPR (ProteOn XPR36), target immobilized
T5 construct: also called OSM
T5 sequence (looked up): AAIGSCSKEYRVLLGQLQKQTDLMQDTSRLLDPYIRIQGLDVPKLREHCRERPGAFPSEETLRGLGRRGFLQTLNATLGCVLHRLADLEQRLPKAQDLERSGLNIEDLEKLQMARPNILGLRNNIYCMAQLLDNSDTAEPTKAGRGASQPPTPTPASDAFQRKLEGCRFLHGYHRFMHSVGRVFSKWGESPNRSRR

human TNFβ = biological target: T6, human TNFβ (human, UniProt P01374 35-205); assay: SPR (ProteOn XPR36), target immobilized
T6 construct: the result sentence prints TNF; also called hTNFβ
T6 sequence (looked up): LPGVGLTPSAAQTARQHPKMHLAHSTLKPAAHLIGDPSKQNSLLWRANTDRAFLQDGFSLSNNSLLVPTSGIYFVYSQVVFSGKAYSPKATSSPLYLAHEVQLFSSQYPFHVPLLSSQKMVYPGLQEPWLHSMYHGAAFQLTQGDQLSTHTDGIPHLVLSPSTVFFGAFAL

human CD40L = biological target: T7, human CD40L (human, UniProt P29965 113-261, limits assumed); assay: SPR (ProteOn XPR36), target immobilized
T7 sequence (looked up): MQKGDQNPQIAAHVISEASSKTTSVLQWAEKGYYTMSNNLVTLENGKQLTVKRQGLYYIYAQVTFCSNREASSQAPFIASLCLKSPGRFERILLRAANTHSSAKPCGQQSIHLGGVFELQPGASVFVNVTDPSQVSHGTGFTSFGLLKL

human IL-6 [2] = biological target: T8, human IL-6 (human, UniProt P05231 30-212); assay: in-solution affinity, Gyrolab
T8 construct: also called hIL-6
Method: (§1) Fitting of the dilution series was done using Gyrolab Analysis software, where KD- and receptor-controlled curves were analyzed to determine the KD value.

mouse serum albumin = biological target: T9, mouse serum albumin (mouse, UniProt P07724 25-608); assay: in-solution affinity, Gyrolab
T9 construct: also called mouse SA
Method: as §1

cyno serum albumin = biological target: T10, cyno serum albumin (cynomolgus monkey, UniProt A2V9Z4 25-608); assay: in-solution affinity, Gyrolab
T10 construct: also called cyno SA
Method: as §1

human TNF-α [3] = biological target: T11, human TNF-α (human, UniProt P01375 77-233); assay: in-solution affinity, Gyrolab
T11 construct: also called hTNF-α; recombinant soluble hTNF-α
Method: as §1

cyno TNF-α [4] = biological target: T12, cyno TNF-α (cynomolgus monkey, UniProt P79337 77-233); assay: in-solution affinity, Gyrolab
T12 construct: also called cynomolgus monkey TNF-α
Method: as §1

human serum albumin = biological target: T13, human serum albumin (human, UniProt P02768 25-609); assay: in-solution affinity, Gyrolab
T13 construct: also called HSA; human SA
Method: as §1

human IL-6 [5] = biological target: T8, human IL-6; assay: cell-based or functional assay
human TNF-α [6] = biological target: T11, human TNF-α; assay: cell-based or functional assay
cyno IL-6 = biological target: T14, cyno IL-6 (cynomolgus monkey, UniProt P79341 28-212, limits assumed); assay: cell-based or functional assay
T14 sequence (looked up): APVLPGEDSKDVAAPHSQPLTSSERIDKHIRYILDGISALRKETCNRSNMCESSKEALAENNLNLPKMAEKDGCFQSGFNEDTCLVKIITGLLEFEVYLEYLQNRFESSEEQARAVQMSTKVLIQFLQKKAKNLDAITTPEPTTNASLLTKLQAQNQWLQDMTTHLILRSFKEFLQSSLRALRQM

cyno TNF-α [7] = biological target: T12, cyno TNF-α; assay: cell-based or functional assay

T13 sequence (P02768 25-609 limits assumed): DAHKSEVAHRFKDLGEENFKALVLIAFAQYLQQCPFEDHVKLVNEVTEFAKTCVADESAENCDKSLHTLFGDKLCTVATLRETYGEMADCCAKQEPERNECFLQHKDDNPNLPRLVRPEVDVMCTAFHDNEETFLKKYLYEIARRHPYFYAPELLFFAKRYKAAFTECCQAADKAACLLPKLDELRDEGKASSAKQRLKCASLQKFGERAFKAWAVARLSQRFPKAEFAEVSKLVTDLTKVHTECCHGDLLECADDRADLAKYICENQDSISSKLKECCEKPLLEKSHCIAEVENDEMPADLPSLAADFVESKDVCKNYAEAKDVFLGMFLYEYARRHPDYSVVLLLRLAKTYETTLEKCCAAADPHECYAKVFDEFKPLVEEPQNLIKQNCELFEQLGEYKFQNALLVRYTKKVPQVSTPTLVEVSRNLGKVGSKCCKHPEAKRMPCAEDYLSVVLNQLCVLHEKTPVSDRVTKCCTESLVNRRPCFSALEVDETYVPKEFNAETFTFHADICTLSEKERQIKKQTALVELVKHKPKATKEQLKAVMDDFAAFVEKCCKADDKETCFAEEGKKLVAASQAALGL
T11 sequence (P01375 77-233 limits assumed): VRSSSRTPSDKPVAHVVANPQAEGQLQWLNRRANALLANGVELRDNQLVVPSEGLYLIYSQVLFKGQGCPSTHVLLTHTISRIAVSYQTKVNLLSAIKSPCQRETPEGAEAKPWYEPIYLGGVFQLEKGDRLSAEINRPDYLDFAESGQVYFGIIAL
T12 sequence (P79337 77-233 limits assumed): as the sequence (P01375 77-233 limits assumed) above, with L37V, R44T, T72N, R138L counted along it
T1 sequence (P01375 whole entry): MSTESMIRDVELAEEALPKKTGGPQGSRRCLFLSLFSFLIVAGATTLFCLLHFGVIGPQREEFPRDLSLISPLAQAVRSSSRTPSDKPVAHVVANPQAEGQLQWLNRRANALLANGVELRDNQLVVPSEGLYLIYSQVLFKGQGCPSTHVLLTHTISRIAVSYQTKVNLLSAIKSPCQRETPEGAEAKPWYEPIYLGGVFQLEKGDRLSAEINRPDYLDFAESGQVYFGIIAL
T10 sequence (A2V9Z4 25-608 limits assumed): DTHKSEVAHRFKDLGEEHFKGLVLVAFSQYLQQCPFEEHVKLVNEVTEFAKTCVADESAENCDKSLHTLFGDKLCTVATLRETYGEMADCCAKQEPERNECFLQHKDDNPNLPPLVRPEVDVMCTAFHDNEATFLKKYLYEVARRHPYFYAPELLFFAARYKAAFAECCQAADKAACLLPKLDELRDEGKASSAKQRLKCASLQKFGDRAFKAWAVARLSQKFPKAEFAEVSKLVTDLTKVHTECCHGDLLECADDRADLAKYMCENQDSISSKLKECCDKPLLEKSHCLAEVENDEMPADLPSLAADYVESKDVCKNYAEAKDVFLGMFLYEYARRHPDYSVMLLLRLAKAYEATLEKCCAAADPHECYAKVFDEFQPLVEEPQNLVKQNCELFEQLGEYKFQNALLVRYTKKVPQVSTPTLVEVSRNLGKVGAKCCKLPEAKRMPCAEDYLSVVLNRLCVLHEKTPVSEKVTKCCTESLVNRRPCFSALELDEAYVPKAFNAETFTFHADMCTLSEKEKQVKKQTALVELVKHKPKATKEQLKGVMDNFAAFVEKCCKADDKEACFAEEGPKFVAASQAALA
T4 sequence (O43557 74-240 limits assumed): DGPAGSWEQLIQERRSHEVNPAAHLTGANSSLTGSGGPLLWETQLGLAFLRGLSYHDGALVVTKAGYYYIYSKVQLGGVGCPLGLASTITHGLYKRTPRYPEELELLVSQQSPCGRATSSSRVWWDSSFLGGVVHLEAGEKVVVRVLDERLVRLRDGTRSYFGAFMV

B1: F027201062 (bispecific antibody)
chain: DVQLVESGGGVVQPGGSLRLSCAASGRTFSNYAMAWFRQAPGKEREFVAVISYAGGRTYYADSVKGRFTISRDNAKNTVYLQMNSLRPEDTALYYCAAVDSPLIATHPRGYDYWGQGTLVTVSSGGGGSGGGSEVQLVESGGGVVQPGGSLRLSCAASGFTFRSFGMSWVRQAPGKGPEWVSSISGSGSDTLYADSVKGRFTISRDNSKNTLYLQMNSLRPEDTALYYCTIGGSLSRSSQGTLVTVSSGGGGSGGGSEVQLVESGGGVVQPGGSLRLSCAASGFTLAYYAIGWFRQAPGKEREGVSCISGSVGTTYYADSVKGRFTISRDNAKNTVYLQMNSLRPEDTALYYCVRSSWFDCGVQGRDLGNEYDYRGQGTLVTVSSGGGGSGGGSEVQLVESGGGVVQPGGSLRLSCTASGFTFSTADMGWFRQAPGKGREFVARISGIDGTTYYDEPVKGRFTISRDNSKNTVYLQMNSLRPEDTALYYCRSPRYADQWSAYDYWGQGTLVKVSSA
notes: anti-IL-6 (17C04, 6B12), anti-HSA (ALB23002), anti-TNF-α (6C11), C-terminal alanine; produced in Pichia pastoris; also called ISVD construct F027201062; Nanobody F027201062
EC50 [1]: 120 pM and 180 pM and 170 pM | binding result (human FASL): no binding (tested: 300 nM) | binding result (human TL-1A): no binding (tested: 300 nM) | binding result (human LIGHT): no binding (tested: 300 nM) | binding result (human oncostatin M): no binding (tested: 300 nM) | binding result (human TNFβ): no binding (tested: 300 nM) | binding result (human CD40L): no binding (tested: 300 nM) | Kd (human IL-6 [2]): 7.3 pM and 5.3 pM and 3 pM | Kd (mouse serum albumin): 58500 pM and 62200 pM and 56000 pM | Kd (cyno serum albumin): 6700 pM and 4900 pM and 6100 pM | Kd (human TNF-α [3]): 5.7 pM and 5.2 pM and 9.9 pM | Kd (cyno TNF-α [4]): 53.8 pM and 23.7 pM and 25.9 pM | Kd (human serum albumin): 7600 pM and 6400 pM and 6200 pM | IC50 of IL-17A/sIL-6R induced VEGF-A release, RA-FLS (human IL-6 [5]): 2000 pM | average IC50, IL-6 induced TF-1 proliferation (human IL-6 [5]): 34 pM | IC50 of SEB-induced CCL4 release, human whole blood (human TNF-α [6]): 920 pM | IC50 of SEB-induced MCP-1 release, human whole blood (human TNF-α [6]): 3200 pM | average IC50, NFκB reporter assay (human TNF-α [6]): 53 pM | average IC50, IL-6 induced TF-1 proliferation (cyno IL-6): 56 pM | average IC50, NFκB reporter assay (cyno TNF-α [7]): 158 pM
